Laboratory results reported in the RNAGym collection of RNA variant scans (doi:10.1093/nar/gkz1192).

B1: CPEB3 Ribozyme (parent)
chain: UAACAGGGGGCCACAGCAGAAGCGUUCACGUCGCAGCCCCUGUCAGAUUCUGGUGAAUCUGCGAAUUCUGCUGUAUAUCUC

Variants of: B1
Experiment: self-cleavage, relative activity (ratio to wild type); higher = more cleavage; in vitro, sequencing
How it was run: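 Barcoded CPEB3 ribozyme mutants, produced by rounds of error-prone PCR, self-cleaved while being transcribed with T7 RNA polymerase for 5 hours at 37°C and during a subsequent 15 min DNase I step before EDTA was added. Sequencing of template-switched cDNA on Illumina gave cleaved and total reads, and DNA sequencing assigned barcodes to variants. Each variant's relative activity is its cleaved/total read fraction divided by the unmutated ribozyme's fraction, averaged across three batches. A variant needed a minimum of 5 reads.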

With UAACAGGGGUCCACAGCAGACGCGUUCACGUCGCAGCCCCUGUCAGAUUCUGGUGAAUCUGCGAAUUCUGCUGUAUAUCUC [G10U A21C] as the variant, how does the self-cleavage read?
The self-cleavage was 0.06.

For UAACAGGGGUCCACAGCAGAGGCGUUCACGUCGCAGCCCCUGUCAGAUUCUGGUGAAUCUGCGAAUUCUGCUGUAUAUCUC [G10U A21G], which self-cleavage is on record?
Its self-cleavage is 0.08.

For UAACAGGGGCCCACAGCAGAAGCGUUCACGUCGCAGCCCCUGUCAGAUUCUGGUGAAUCAGCGAAUUCUGCUGUAUAUCUC [G10C U60A], which self-cleavage is on record?
Its self-cleavage is 0.12.

With UAACAGGGGCCCACAGCAGAAGCGUUCACGUCGCAGCCCCUGUCAGAUUCUGGUGAAUCUGCGAACUCUGCUGUAUAUCUC [G10C U66C] as the variant, how does the self-cleavage read?
Its self-cleavage is 0.15.

Which self-cleavage does the source give for UAACAGGGGCCCACAGCAGAAGCGUUCACGUCGCAGCCCCUGUCAGAUUCUGGUGAAUCUGCGAAAUCUGCUGUAUAUCUC [G10C U66A] here?
The self-cleavage was 0.2.

Which self-cleavage does the source give for UAACAGGGGUCCACAGCAGGAGCGUUCACGUCGCAGCCCCUGUCAGAUUCUGGUGAAUCUGCGAAUUCUGCUGUAUAUCUC [G10U A20G] here?
The self-cleavage was 0.36.

Which self-cleavage does the source give for UAACAGGGGUCCACAGCAGAAGCGUUCACGUCGCAGCCCCUGUCAGAUUCUGGUGAAUCUGCGGAUUCUGCUGUAUAUCUC [G10U A64G] here?
The self-cleavage was 0.07.

For UAACAGGGGUCCACAGCAGAAGCGUUCACGUCGCAGCCCCUGUCAGAUUCUGGUGAAUCUGCGUAUUCUGCUGUAUAUCUC [G10U A64U], which self-cleavage is on record?
The self-cleavage was 0.35.

For UAACAGGGGCCCACAGCAGAAGCGUUCACGUCGCAGCCCCUGUCAGAUUCUGGUGAAUCUGCGAAUCCUGCUGUAUAUCUC [G10C U67C], which self-cleavage is on record?
The self-cleavage was 0.37.

For UAACAGGGGCCCACAGCAGAAGCGUUCACGUCGCAGCCCCUGUCAGAUUCUGGUGAAUCUGCGAAUACUGCUGUAUAUCUC [G10C U67A], which self-cleavage is on record?
The self-cleavage was 0.17.

With UAACAGGGGCCCACAGCAGAAGCGUUCACGUCGCAGCCCCUGUCAGAUUCUGGUGAAUCUGCGAAUUCUGCUGGAUAUCUC [G10C U74G] as the variant, how does the self-cleavage read?
Its self-cleavage is 0.26.

For UAACAGGGGCCCACAGCAGAAGCGUUCACGUCGCAGCCCCUGUCAGAUUCUGGUGAAUCUGCGAAUUCUGCUGAAUAUCUC [G10C U74A], which self-cleavage is on record?
The self-cleavage was 0.26.

With UAACAGGGGCCCACAGCAGAAGCGUUCACGUCGCAGCCCCUGUCAGAUUCUGGUGAAUCUGCGAAUUCUGCUGUACAUCUC [G10C U76C] as the variant, how does the self-cleavage read?
The self-cleavage was 0.19.

For UAACAGGGGUCCACGGCAGAAGCGUUCACGUCGCAGCCCCUGUCAGAUUCUGGUGAAUCUGCGAAUUCUGCUGUAUAUCUC [G10U A15G], which self-cleavage is on record?
Its self-cleavage is 0.18.

With UAACAGGGGCCCACAGCAGAAGCGUUCACGUCGCAGCCCCUGUCAGAUUCUGGUGAAUCUGCGAAUUCAGCUGUAUAUCUC [G10C U69A] as the variant, how does the self-cleavage read?
Its self-cleavage is 0.3.

Which self-cleavage does the source give for UAACAGGGGCCCACAGCAGAAGCGUUCACGUCGCAGCCCCUGUCAGAUUCUGGUGAAUCUGCGAAUUCCGCUGUAUAUCUC [G10C U69C] here?
The self-cleavage was 0.12.

For UAACAGGGGCCCACAGCAGAAGCGUUCACGUCGCAGCCCCUGUCAGAUUCUGGUGAAUCUGCGAAUUCGGCUGUAUAUCUC [G10C U69G], which self-cleavage is on record?
The self-cleavage was 0.16.

With UAACAGGGGUCCACAGCAGAAGCGUUCACGUCGCAGCCCCUGUCAGAUUCUGGUGAAUCUGCGAAUUCUGCUGUAUAUCUC [G10U] as the variant, how does the self-cleavage read?
Its self-cleavage is 0.23.

Which self-cleavage does the source give for UAACAGGGGCCCACAGCAGAAGCGUUCACGUCGCAGCCCCUGUCAGAUUCUGGUGAAUCUGCGAAUUCUGCUGUAUAUCCC [G10C U80C] here?
Its self-cleavage is 0.31.

With UAACAGGGGUCCACAGCAGAAGCGUUCACGUCGCAGCCCCUGUCAGAUUCUGGUGGAUCUGCGAAUUCUGCUGUAUAUCUC [G10U A56G] as the variant, how does the self-cleavage read?
The self-cleavage was 0.16.

With UAACAGGGGUCCACAGCAGAAGCGUUCACGUCGCAGCCCCUGUCAGAUUCUGGUGUAUCUGCGAAUUCUGCUGUAUAUCUC [G10U A56U] as the variant, how does the self-cleavage read?
The self-cleavage was 0.08.

With UAACAGGGGUCCGCAGCAGAAGCGUUCACGUCGCAGCCCCUGUCAGAUUCUGGUGAAUCUGCGAAUUCUGCUGUAUAUCUC [G10U A13G] as the variant, how does the self-cleavage read?
The self-cleavage was 0.11.

With UAACAGGGGUCCUCAGCAGAAGCGUUCACGUCGCAGCCCCUGUCAGAUUCUGGUGAAUCUGCGAAUUCUGCUGUAUAUCUC [G10U A13U] as the variant, how does the self-cleavage read?
Its self-cleavage is 0.1.

Which self-cleavage does the source give for UAACAGGGGCCCACAGCAGAAGCGUUCACGUCGCAGCCCCUGUCAGAUUCUGGUGAAUCUGCGAAUUCUGCUGUAUACCUC [G10C U78C] here?
Its self-cleavage is 0.17.

With UAACAGGGGCCCACAGCAGAAGCGUUCACGUCGCAGCCCCUGUCAGAUUCUGGUGAAUCUGCGAAUUCUGCUGUAUAACUC [G10C U78A] as the variant, how does the self-cleavage read?
Its self-cleavage is 0.09.

For UAACAGGGGCCCACAGCAGAAGCGUUCACGUCGCAGCCCCUGUCAGAUUCUGGUGAAUCUGCGAAUUCUGCAGUAUAUCUC [G10C U72A], which self-cleavage is on record?
The self-cleavage was 0.14.

For UAACAGGGGUCCACAGCAGAAGCGUUCACGUCGCGGCCCCUGUCAGAUUCUGGUGAAUCUGCGAAUUCUGCUGUAUAUCUC [G10U A35G], which self-cleavage is on record?
The self-cleavage was 0.32.

Which self-cleavage does the source give for UAACAGGGGUCCACAGCAGAAGCGUUCACGUCGCUGCCCCUGUCAGAUUCUGGUGAAUCUGCGAAUUCUGCUGUAUAUCUC [G10U A35U] here?
The self-cleavage was 0.05.

Which self-cleavage does the source give for UAACAGGGGUCCACAGCAGAAGCGUUCACGUCGCAGCCCCUGUCAGGUUCUGGUGAAUCUGCGAAUUCUGCUGUAUAUCUC [G10U A47G] here?
Its self-cleavage is 0.21.

Which self-cleavage does the source give for UAACAGGGGUCCACAGCAGAAGCGUUCGCGUCGCAGCCCCUGUCAGAUUCUGGUGAAUCUGCGAAUUCUGCUGUAUAUCUC [G10U A28G] here?
The self-cleavage was 0.17.

For UAACAGGGGUCCACAGCAGAAGCGUUCACGUCGCAGCCCCUGUCAGAUUCUGGUGAGUCUGCGAAUUCUGCUGUAUAUCUC [G10U A57G], which self-cleavage is on record?
Its self-cleavage is 0.23.

For UAACAGGGGUCCACAGCAGAAGCGUUCACGUCGCAGCCCCUGUCAGAUUCUGGUGAUUCUGCGAAUUCUGCUGUAUAUCUC [G10U A57U], which self-cleavage is on record?
Its self-cleavage is 0.07.

With UAACAGGGGUCCACAGCAGAAGCGUUCACGUCGCAGCCCCUGUCCGAUUCUGGUGAAUCUGCGAAUUCUGCUGUAUAUCUC [G10U A45C] as the variant, how does the self-cleavage read?
The self-cleavage was 0.14.

Which self-cleavage does the source give for UAACAGGGGCCCACAGCAGAAGCGUUCACGUCGCAGCCCCUGUCAGAUUCUGGUGAACCUGCGAAUUCUGCUGUAUAUCUC [G10C U58C] here?
The self-cleavage was 0.19.
